Assay results from patent publication US20030060599A1, “Tripeptide amides that block viral infectivity and methods of use thereof” (published 2003).
Ends that are not written are not given here.

Molecular target: major capsid protein (p24) of HIV-1 (HIV-1 (SF-2), UniProt P03349)
Experiment: cell-based or functional assay

| Binder | antiviral inhibitory activity as determined by p24 production and RT activity in the culture supernatants (H9 cells, HIV-1 SF-2, 100 µM peptide) |
| --- | --- |
| Pro-Lys-Glu-NH2 [Pro-Lys-Glu-NH2] | > 80% |
| Glu-Pro-Phe-NH2 [Glu-Pro-Phe-NH2] | > 80% |
| Thr-Leu-Glu-NH2 [Thr-Leu-Glu-NH2] | > 80% |
| Arg-Val-Leu-NH2 [Arg-Val-Leu-NH2] | > 80% |
